Source: the supplement of paper PMC9170038

System: MS2 coat protein
Experiment: apparent KD of MS2 coat protein; designed switch direction (-1 OFF switch, 1 ON switch): -1; higher = weaker reporter binding
Method in brief: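 Designed RNA switches were transcribed on Illumina chips by stalled E. coli RNA polymerase and titrated with SNAP-549-labelled MS2 coat protein from 0.7 or 1.5 nM, doubling to 3 µM. Step length ran from 0.8–1.5 h at the lowest concentration to 10–20 min at the highest. The apparent KD is the median over clusters for each design, from curve-fitted normalised cluster fluorescence.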

[1] = Eterna round: R95, input ligand: microRNA oligo, concentration not stated
[2] = Eterna round: R95, input ligand: FMN 200 uM
[3] = Eterna round: R95, input ligand: none
[4] = input ligand: microRNA oligo, concentration not stated

In the case of “UAUUAGCAAGCGAGAUCCCACAUGAGGAUCACCCAUGUGCUCGUGCAUCCAGAAUUACUGGGUGCUGCUCGUCUUAU [Winner reversed engineered 13] (Eterna round: R97, puzzle: Sensor, turn-off variant 1)”, the “apparent KD of MS2 coat protein” value (input ligand: FMN 200 uM) is reported as 15.2 nM and the “apparent KD of MS2 coat protein” value (input ligand: none) is reported as 14.8 nM.
For “UAUUAGCAAGUAAGAUCCCACAUGAGGAUCACCCAUGUGCUCGUCAUAUAACGUACUGUGAGGAAACUCACGGUACG [Sensor-V1 #84] (Eterna round: R97, puzzle: Sensor, turn-off variant 1)”, the “apparent KD of MS2 coat protein” value (input ligand: FMN 200 uM) was 85 nM and the “apparent KD of MS2 coat protein” value (input ligand: none) was 103 nM.
With “UAUUAGCUAGGAUAUACAUGAGGAUCACCCAUGUCACGGGUCCACUUGUCCUAUGCGUGUAGAAGGAGCGACCC [JL Ceriza mod 3] (puzzle: Exclusion 3)” the “apparent KD of MS2 coat protein” value [1] was 20.7 nM.
For “UAUUAGUAAGGAUAUCUCGUCAUGGACGUGAGUCCAUGACGAGAGAAGGUACAUGAGGAUCACCCAUGUCCAUU [Mod of Fisker 20 - Jieux - Exclusion 4] (Eterna round: R97, puzzle: Exclusion 4)”, the “apparent KD of MS2 coat protein” value (input ligand: FMN 200 uM) was 16.5 nM and the “apparent KD of MS2 coat protein” value (input ligand: none) was 14.1 nM.
In the case of “UAUUAGUGAGGAUAUGGUAAAGAUAAGAUGAUGAAAGAACUCCAGAAGGCACAUGAGGAUCACCCAUGUAGUAG [JL-ex4-2.09 Jieux mod] (puzzle: Exclusion 4)”, the “apparent KD of MS2 coat protein” value [1] is reported as 19.5 nM.
For “UAUUAUCAAGCUUGAUCCCACAUGAGGAUCACCCAUGUGCUCGUCUUAUUUCUGUCCUUAUUGUUCUCUCGUCUAAU [JR_STOV1_v2_Sub097] (Eterna round: R97, puzzle: Sensor, turn-off variant 1)”, the “apparent KD of MS2 coat protein” value (input ligand: FMN 200 uM) was 80.2 nM and the “apparent KD of MS2 coat protein” value (input ligand: none) was 94.1 nM.
“UAUUCACAUGAGGAUCACCCAUGUCAGGAUAUAGAAGCGUAGUCCGCAAGAAAGCUUACUAGAAGGGACGUAUU [EX1 B.22] (Eterna round: R97, puzzle: Exclusion 1)” was tested, and the “apparent KD of MS2 coat protein” value (input ligand: FMN 200 uM) was 18.8 nM and the “apparent KD of MS2 coat protein” value (input ligand: none) was 18.5 nM.
In the case of “UAUUGCUGAGGAUAUAUAUAGAGCAUUUUCCUCGUGACAGAACAUGAGGAUCACCCAUGUAGAAGGCAGAAGUG [Eternabot (L2) Solution 87] (Eterna round: R97, puzzle: Exclusion 2)”, the “apparent KD of MS2 coat protein” value (input ligand: FMN 200 uM) is reported as 263 nM and the “apparent KD of MS2 coat protein” value (input ligand: none) is reported as 192 nM.
With “UAUUUGUGAGGAUAUGAGUCGUAGAACAAUAGUACUACGUCUCAGAAGGUACAUGAGGAUCACCCAUGUUCCUC [Fiskers Ex 4 Super Stable 44 mod 31] (puzzle: Exclusion 4)” the “apparent KD of MS2 coat protein” value [1] was 18.4 nM.
With “UAUUUUGCAAGCAGAUCCCACAUGAGGAUCACCCAUGUGCUCGUCUUAUAAGGUUCUGUGACGAUAGUCACGGUACC [mod -Eli mod] (Eterna round: R97, puzzle: Sensor, turn-off variant 1)” the “apparent KD of MS2 coat protein” value (input ligand: FMN 200 uM) was 45.9 nM and the “apparent KD of MS2 coat protein” value (input ligand: none) was 46.1 nM.
With “UCAAGUAUGUAGGAUAUCGAUGUCUGCGGACAUCGAGAAGGACGUACAUGAGGAUCACCCAUGUAACUUGCAUG [Exclusion 6 - B - 10:c] (puzzle: Exclusion 6)” the “apparent KD of MS2 coat protein” value [1] was 70.9 nM.
“UCAAGUUUUUUGUUUUUUAACAUGAGGAUCACCCAUGUAUUUUUAUAGUAUGUGUGAAUAAGAUCUCGUGGUCUUAU [JR_SV3TOV1_Sub099] (puzzle: Sensor v3, turn-off variant 1)” was tested, and the “apparent KD of MS2 coat protein” value [2] was 31.8 nM, the “apparent KD of MS2 coat protein” value [1] was 78.1 nM and the “apparent KD of MS2 coat protein” value [3] was 36.5 nM.
With “UCAGGCUAUUAAACCGCCGACAUGAGGAUCACCCAUGUACUUCAUGCGCUAGCUUGCUCGUCUACCUCAAGGAUCCG [Eternabot (L2) Solution 24] (Eterna round: R97, puzzle: Sensor, turn-off variant 1)” the “apparent KD of MS2 coat protein” value (input ligand: FMN 200 uM) was 67.7 nM and the “apparent KD of MS2 coat protein” value (input ligand: none) was 68.6 nM.
“UCCAGCAUACGGAGAUCCAACAUGAGGAUCACCCAUGUCUGGAAAGCUUUUUGCUUGUCUUAUCCGUCUCUGUGUGU [Design #7] (Eterna round: R97, puzzle: Sensor, turn-off variant 1)” was tested, and the “apparent KD of MS2 coat protein” value (input ligand: FMN 200 uM) was 32.7 nM and the “apparent KD of MS2 coat protein” value (input ligand: none) was 35.8 nM.
With “UCCUCACAUGAGGAUCACCCAUGUCAGGAUAUCCAACAUGCUCCCAAAACCACGCAUCGGAGAAGGGACAUGCA [EX1 A.6] (Eterna round: R97, puzzle: Exclusion 1)” the “apparent KD of MS2 coat protein” value (input ligand: FMN 200 uM) was 21.7 nM and the “apparent KD of MS2 coat protein” value (input ligand: none) was 17.7 nM.
For “UCCUCACAUGAGGAUCACCCAUGUUAGGAUAUCUUAGAGCGCGAAUGACAGUUCUUUAAGAGAAGGAACUGGGC [Exclusion 1 (MOD1.2 of Edarti)] (Eterna round: R97, puzzle: Exclusion 1)”, the “apparent KD of MS2 coat protein” value (input ligand: FMN 200 uM) was 50.5 nM and the “apparent KD of MS2 coat protein” value (input ligand: none) was 20.1 nM.
For “UCCUUAUCGGUCAGGAUAUACACCCGUUUCUCCUUGUAGAAGGGACAUGAGGAUCACCCAUGUACAGUACAUUU [alecazam66] (Eterna round: R97, puzzle: Brourd's mod of Exclusion 4)”, the “apparent KD of MS2 coat protein” value (input ligand: FMN 200 uM) was 29.6 nM and the “apparent KD of MS2 coat protein” value (input ligand: none) was 26.8 nM.
With “UCGAGGUCAGGAUAUACAUGAGGAUCACCCAUGUGGAAGUAAGGUAGGAGAAGAGUAGGUAGAAGGGACGAGAG [JR_Exclu3_Sub050] (puzzle: Exclusion 3)” the “apparent KD of MS2 coat protein” value [1] was 30.8 nM.
“UCGCUGCGAGGAUAUACGUGCGCGCGCGCGCGCGCGCGCGUACAUGAGGAUCACCCAUGUAGAAGGCGCGCUGC [Apr-15 SS2-1] (puzzle: Exclusion 2)” was tested, and the “apparent KD of MS2 coat protein” value [1] was 12.5 nM.
With “UCGCUGCGAGGAUAUACGUGCGCGCGCUCGCGUUCGCGCGUACAUGAGGAUCACCCAUGUAGAAGGCGCGCUGC [Apr-15 SS2-5] (puzzle: Exclusion 2)” the “apparent KD of MS2 coat protein” value [1] was 11.1 nM.
“UCGGCGCGAGGAUAUACGUUUGCUUUUUAGGAUCGUUGCGUACAUGAGGAUCACCCAUGUAGAAGGCGCGCCGC [Apr-15 SS2-27] (puzzle: Exclusion 2)” was tested, and the “apparent KD of MS2 coat protein” value [1] was 12.4 nM.
For “UCGUGAUUAGAGGAUAUAUUUUGAGUCAGAACAAUAGAAGGCUAAACAUGAGGAUCACCCAUGUAAAUGUGUAA [JR_Ex6_Sub061] (Eterna round: R97, puzzle: Exclusion 6)”, the “apparent KD of MS2 coat protein” value (input ligand: FMN 200 uM) was 184 nM and the “apparent KD of MS2 coat protein” value (input ligand: none) was 34.9 nM.
“UCGUGGUAAAUCAGGUGAUGUCUGAUAGGAUGGACUUUGACAUGAGGAUCACCCAUGUUGCUUUUUGCCCGUCUUAA [JR_SV3TOV2_Sub044] (puzzle: Sensor v3, turn-off variant 2)” was tested, and the “apparent KD of MS2 coat protein” value [2] was 16.1 nM, the “apparent KD of MS2 coat protein” value [1] was 27.3 nM and the “apparent KD of MS2 coat protein” value [3] was 15.2 nM.
“UCUAAACAUGAGGAUCACCCAUGUGAGGAUAUGAUGCAGCAGUGGUCUACGCUGUGCAUCAGAAGGCGCAUGUG (puzzle: Exclusion 1)” was tested, and the “apparent KD of MS2 coat protein” value [2] was 148 nM, the “apparent KD of MS2 coat protein” value [1] was 72.2 nM and the “apparent KD of MS2 coat protein” value [3] was 80.4 nM.
For “UCUGCCGCCGUGAGGAUAUGCCCGAAAAAACGCGGGCAGAAGGCACAUGAGGAUCACCCAUGUCCCGCGGUUUU [salish99_bmx4_r4_136] (Eterna round: R97, puzzle: Brourd's mod of Exclusion 4)”, the “apparent KD of MS2 coat protein” value (input ligand: FMN 200 uM) was 31 nM and the “apparent KD of MS2 coat protein” value (input ligand: none) was 15.8 nM.
With “UCUGUUAUGCGAGGAUAUCGACCAUUCCUCUUAACAUGAGGAUCACCCAUGUGCUAAACCUACAACGAGAAGGCGCUCAUACUC [JR_ExcNG2_Sub068] (Eterna round: R96, puzzle: Exclusion NG 2)” the “apparent KD of MS2 coat protein” value (input ligand: FMN 200 uM) was 156 nM, the “apparent KD of MS2 coat protein” value [4] was 102 nM and the “apparent KD of MS2 coat protein” value (input ligand: none) was 143 nM.
With “UCUUUACAUGAGGAUCACCCAUGUCAGGAUAUCAACUUUUGGGACUUCGGAUAUAAGAUGAGAAGGGACACCGG [Eternabot (L2) Solution 53] (Eterna round: R97, puzzle: Exclusion 1)” the “apparent KD of MS2 coat protein” value (input ligand: FMN 200 uM) was 19.2 nM and the “apparent KD of MS2 coat protein” value (input ligand: none) was 19.4 nM.
For “UGAAAGUGAGGAUAUCCAAUAUAUGACAUGAGGAUCACCCAUGUUUCCACUCGUACCUCCGGAGAAGGCACAAGGU [Ex5 #57] (Eterna round: R97, puzzle: Exclusion 5)”, the “apparent KD of MS2 coat protein” value (input ligand: FMN 200 uM) was 25.5 nM and the “apparent KD of MS2 coat protein” value (input ligand: none) was 29.4 nM.
For “UGAAAGUGAGGAUAUGGUGAGUAGUGCCUGAGCGCUGCUCACCAGAAGGCACAUGAGGAUCACCCAUGUAAAUG [Mat - Exclusion 4 - Mod of JL - D20] (puzzle: Exclusion 4)”, the “apparent KD of MS2 coat protein” value [1] was 38.9 nM.
For “UGAAUGUGAGGAUAUGGUGAGUAGUGCCUAAGCGCUGCUCACCAGAAGGCACAUGAGGAUCACCCAUGUACUUG [Mat - Exclusion 4 - Mod of JL - D19] (puzzle: Exclusion 4)”, the “apparent KD of MS2 coat protein” value [1] was 47.9 nM.
With “UGACUACAUGAGGAUCACCCAUGUCAGGAUAUGCCGUUAAAUUAACAUCAACAUACGGGUAGAAGGGACAGCGU [1st #5] (Eterna round: R97, puzzle: Exclusion 1)” the “apparent KD of MS2 coat protein” value (input ligand: FMN 200 uM) was 27.2 nM and the “apparent KD of MS2 coat protein” value (input ligand: none) was 29.4 nM.
In the case of “UGAGACUGAGGAUAUACUAGACUACAAAGUAGUCAGUGGGUACAUGAGGAUCACCCAUGUAGAAGGCAGCCUCG [Omei Repeat Sequence v1] (Eterna round: R97, puzzle: Exclusion 2)”, the “apparent KD of MS2 coat protein” value (input ligand: FMN 200 uM) is reported as 289 nM and the “apparent KD of MS2 coat protein” value (input ligand: none) is reported as 35.9 nM.
For “UGAGACUGAGGAUAUACUAGCCCAUAAAGUGGGUUGUGGGUACAUGAGGAUCACCCAUGUAGAAGGCAGCCUCG [Omei Repeat Sequence v4] (Eterna round: R97, puzzle: Exclusion 2)”, the “apparent KD of MS2 coat protein” value (input ligand: FMN 200 uM) was 516 nM and the “apparent KD of MS2 coat protein” value (input ligand: none) was 75.4 nM.
For “UGAGUGCUGCGAGGAUAUACAUGAGGAUCACCCAUGUAAACCUGUGAGGCUUUGCCUCACAGGAUGUAGAAGGCGCAGUACUCU [JL ENG2 1.16] (Eterna round: R96, puzzle: Exclusion NG 2)”, the “apparent KD of MS2 coat protein” value (input ligand: FMN 200 uM) was 15.5 nM, the “apparent KD of MS2 coat protein” value [4] was 9.94 nM and the “apparent KD of MS2 coat protein” value (input ligand: none) was 13.2 nM.
With “UGAUCACAUGAGGAUCACCCAUGUCAGGAUAUCGUCACUGGAGCUUCGGCUCCAGUGACGAGAAGGGACAUAAU [E1/3-A1] (Eterna round: R97, puzzle: Exclusion 1)” the “apparent KD of MS2 coat protein” value (input ligand: FMN 200 uM) was 77.4 nM and the “apparent KD of MS2 coat protein” value (input ligand: none) was 141 nM.
“UGAUCUAGGCGAGGAUAUACAUGAGGAUCACCCAUGUAAACGUGACAUGGAAACAUGUCACGUGUGUAGAAGGCGCCUAGAUCU [MOD2 ENG2 3.54 by JL] (Eterna round: R96, puzzle: Exclusion NG 2)” was tested, and the “apparent KD of MS2 coat protein” value (input ligand: FMN 200 uM) was 15.7 nM, the “apparent KD of MS2 coat protein” value [4] was 10.8 nM and the “apparent KD of MS2 coat protein” value (input ligand: none) was 13.2 nM.
